Tests used:
[1] = Viscosity of eye drops by rotational rheometer; assay type: physicochemical; conditions: shear rate 100 (1/s)
Description: Based on the above information, sodium hyaluronate was set as the viscosity reagent.

pI value of the API = assay type: physicochemical
[2] = test system: apoptotic cells in cornea and conjunctiva; assay: Apoptotic cells by TUNEL, rabbit model; assay type: in vivo; conditions: for cell death rate in the conjunctiva: Day 10; for percentage of apoptotic cells per unit area, cornea: after 10 days
Protocol: The eyes and appendages from each group were excised, fixed in the modified Davidson's solution, and embedded in paraffin, and the tissue sections were TUNEL-stained. In each section, the degree of apoptosis in the cornea and conjunctiva was measured using ZEN (Zeiss, Oberkochen, Germany) and Image J v1.51j8 (NIH, Bethesda, MD, USA) software programs.
The percentage of the apoptotic cells per unit area was evaluated after 10 days in the rabbit model. In the cornea, apoptotic cells were detected at a percentage of 35±6% in the normal control group and 74±2% in the vehicle group. In the 0.1%, 0.2%, and 0.4% (PEG)-BHD1028 treatment groups, the percentage was 40±12%, 39±3%, and 35±4%, respectively. […] In addition, the cell death rate in the conjunctiva was 7±5% in the normal control group and 56±4% in the vehicle group. The percentage in the 0.1%, 0.2% and 0.4% (PEG)-BHD1028 treatment groups was 35±4%, 26±3% and 19±4% on Day 10.

[3] = test system: mouse experimental dry eye (EDE) model; assay: Corneal fluorescein staining (CFS) score, EDE mouse model; assay type: in vivo
Protocol: To confirm the pharmacological effect and appropriate dosage, a pilot study was first conducted with the mice. In addition, a rabbit DED (Dry Eye Disease) model with a large exposed facial area was evaluated in comparison with a mouse model. In the mouse experimental dry eye (EDE) model, scopolamine hydrobromide (Sigma-Aldrich. St. Louis, MO, USA) was subcutaneously injected three times a day (9 a.m., 1:30 p.m., 6 p.m.) in a room exposed to ventilation with an ambient humidity of less than 40% at 25±2° C. to induce DED.
The mice were randomly divided into five groups: (1) EDE (experimental dry eye) control mice without eye drops administration, (2) EDE mice treated with a vehicle (phosphate-buffered saline), (3) EDE mice treated with 0.001% (PEG)-BHD1028 (4) EDE mice treated with 0.01% (PEG)-BHD1028, and (5) EDE mice treated with 0.1% (PEG)-BHD1028. All the treatment groups received 2 μL of eye drops three times a day.
The subjects were evaluated by corneal staining, and the abnormal findings of the eyelids, cornea, and conjunctiva were recorded. After dropping 1 μL of the 1% fluorescent dye solution and washing with saline solution, and the cornea was observed under a slit-lamp microscope and scored to evaluate the degree of epithelial damage (degree of fluorescent staining).
The clinical severity of the cornea was evaluated using a corneal fluorescein staining (CFS) method, which is widely used to detect foreign substances and corneal surface damage. A higher CFS score indicates more severe corneal epitheliopathy.

rabbit DED model = assay: Tear film break-up time (TBUT), rabbit DED model; assay type: in vivo
Description: The rabbit DED model was induced by locally administrating 0.1% benzalkoniumchloride (BAC) drops (Sigma, St. Louis, MO, USA) twice a day (8 a.m. and 4 p.m.). Before the BAC treatment, the control group (baseline, naive) underwent standard dry eye clinical tests such as the Schirmer tear test (STT), TBUT, and corneal staining score (CSS) test. […] The test substance was locally applied bis in die (BID) to both eyes.
TBUT is the time elapsed between the last blink and the first appearance of fluorescein decomposition, and it is an indicator of tear film stability. […] The measurement was repeated three times to obtain an average value.
Tear film instability is an important pathological characteristic of DED and the most common indicator of tear quality.

[4] = Stability according to pH, HPLC residual amount at 40±2° C.; assay type: physicochemical; conditions: for Residual amount: 40±2° C.
Protocol: To evaluate the stability of eye drops according to pH, a 10 mM pH buffer [10 mM sodium phosphate buffer+0.02% sodium azide (pH 5.5, pH 6.0, pH 6.5, pH 7.0) or a 10 mM PBS+WELGENE fresh media 10×PBS (pH 7.4)] was mixed with (PEG)-BHD1028 and the resulting mixture was incubated at 40±2° C., and then the stability was evaluated through an HPLC analysis. As a result of the evaluation, there was no significant difference in the residual amount between the formulation prepared at pH 6.5, which was set as the target pH of the eye drops, and the formulation prepared at 7.0, which was the average pH of the eyes, as shown in Table 4 below.

## NH2-Tyr-Tyr-Phe-Ala-Tyr-His-Pro-Asn-Ile-Pro-Gly-Leu-Tyr-Tyr-Phe-COOH (H-YYFAYHPNIPGLYYF-OH; also: PEGylated, site not given here (mPEG), acetate salt) [(PEG)-BHD1028]
[1]; concentration 0.5%
  viscosity, Test result: 0.009 Pa · S
[1]; concentration 1.5%
  viscosity, Test result: 0.010 Pa · S
[1]; concentration 4.5%
  viscosity, Test result: 0.014 Pa · S
pI value of the API
  pI value: approximately 6.6
[2]; 0.1%
  cell death rate in the conjunctiva: 35±4%
  percentage of apoptotic cells per unit area, cornea: 40±12%
[2]; 0.2%
  cell death rate in the conjunctiva: 26±3%
  percentage of apoptotic cells per unit area, cornea: 39±3%
[2]; 0.4%
  cell death rate in the conjunctiva: 19±4%
  percentage of apoptotic cells per unit area, cornea: 35±4%
[3]; 0.001%, Day 5
  CFS: 9.875 ± 1.808 score
[3]; 0.001%, Day 10
  CFS: 11.000 ± 1.927 score
[3]; 0.01%, Day 5
  CFS: 8.625 ± 1.598 score
[3]; 0.01%, Day 10
  CFS: 7.625 ± 1.598 score
[3]; 0.1%, Day 5
  CFS: 8.125 ± 1.553 score
[3]; 0.1%, Day 10
  CFS: 8.375 ± 1.302 score
Rabbit DED model; rabbit DED, 0.1% BID, Day 5
  TBUT: 10.64 ± 0.99 s
Rabbit DED model; rabbit DED, 0.1% BID, Day 10
  TBUT: 17.88 ± 1.91 s
Rabbit DED model; rabbit DED, 0.2% BID, Day 5
  TBUT: 15.68 ± 1.58 s
Rabbit DED model; rabbit DED, 0.2% BID, Day 10
  TBUT: 17.72 ± 1.74 s
Rabbit DED model; rabbit DED, 0.4% BID, Day 5
  TBUT: 19.88 ± 1.42 s
Rabbit DED model; rabbit DED, 0.4% BID, Day 10
  TBUT: 22.71 ± 1.87 s
Rabbit DED model; rabbit, 0.1% group, Baseline (before BAC treatment)
  TBUT: 49.67 ± 3.17 s
Rabbit DED model; rabbit, 0.1% group, Day 0 (EDE), before treatment
  TBUT: 8.50 ± 1.0 s
Rabbit DED model; rabbit, 0.2% group, Baseline (before BAC treatment)
  TBUT: 49.83 ± 2.10 s
Rabbit DED model; rabbit, 0.2% group, Day 0 (EDE), before treatment
  TBUT: 8.89 ± 1.34 s
Rabbit DED model; rabbit, 0.4% group, Baseline (before BAC treatment)
  TBUT: 53.00 ± 2.29 s
Rabbit DED model; rabbit, 0.4% group, Day 0 (EDE), before treatment
  TBUT: 8.22 ± 1.16 s
[4]; PBS (pH 7.4), Day 0
  Residual amount: 100.0%
[4]; PBS (pH 7.4), Day 1
  Residual amount: 97.1%
[4]; PBS (pH 7.4), Day 3
  Residual amount: 92.3%
[4]; PBS (pH 7.4), Day 7
  Residual amount: 89.9%
[4]; pH 5.5, Day 0
  Residual amount: 100.0%
[4]; pH 5.5, Day 1
  Residual amount: 98.4%
[4]; pH 5.5, Day 3
  Residual amount: 97.2%
[4]; pH 5.5, Day 7
  Residual amount: 96.6%
[4]; pH 6.0, Day 0
  Residual amount: 100.0%
[4]; pH 6.0, Day 1
  Residual amount: 99.8%
[4]; pH 6.0, Day 3
  Residual amount: 99.0%
[4]; pH 6.0, Day 7
  Residual amount: 98.1%
[4]; pH 6.5, Day 0
  Residual amount: 100.0%
[4]; pH 6.5, Day 1
  Residual amount: 99.7%
[4]; pH 6.5, Day 3
  Residual amount: 98.7%
[4]; pH 6.5, Day 7
  Residual amount: 97.3%
[4]; pH 7.0, Day 0
  Residual amount: 100.0%
[4]; pH 7.0, Day 1
  Residual amount: 99.2%
[4]; pH 7.0, Day 3
  Residual amount: 98.7%
[4]; pH 7.0, Day 7
  Residual amount: 94.9%
[4]; pH range 6.5 to 7.6
  most stable pH within the pH range of normal tears: 6.5
